Among the data in patent US20020081652A1 are protection of TE671 cells against AChR degradation induced by mAb 198 (residual α-BTX binding sites), IC50 and residual AChR on TE671 cells (α-BTX binding sites) after 3 h incubation with 1 µg/ml mAb values, retold here.

For assay [1], the target named is mAb 198. The assay is described as follows: cell-based or functional assay.
Assay [2] addresses mAb 198. The assay is described as follows: competition ELISA: polypeptide preincubated with mAb 198, binding of mAb 198 to coated Torpedo AChR read. For orientation: ELISA stands for enzyme-linked immunosorbent assay.
The target in assay [3] is mAb 198. Description: competition ELISA: fragment preincubated with mAb 198, binding of mAb 198 to coated Torpedo AChR read.
Assay [4] deals with human muscle-type AChR on TE671 cells (human) (UniProt P02708). The assay is described as follows: cell-based or functional assay.

In the case of “Hα1-121 fused to glutathione S-transferase (GST) at the N-terminus (from UniProt P02708 21-141) (receptor)”, the protection of TE671 cells against AChR degradation induced by mAb 198 (residual α-BTX binding sites) with mAb 198 [1] amounted to 100 µg/mL. By IC50 is commonly meant the concentration that inhibits the measured activity by half. Read a high IC50 as weaker potency. Regarding “Hα1-121+p3A fused to glutathione S-transferase (GST) at the N-terminus (receptor)”, in the assay with mAb 198 [2], the half-maximal inhibitory concentration (IC50) stood at 100 nM.

On to “Hα1-210+p3A fused to glutathione S-transferase (GST) at the N-terminus (from UniProt P08515 1-218) (receptor)”, for which the IC50 stood at 1300 nM in the assay with mAb 198 [3] and 180 nM in the assay with mAb 198 [2]. In assay [4], mAb 198 (antibody) registered a residual AChR on TE671 cells (α-BTX binding sites) after 3 h incubation with 1 µg/ml mAb of 41%.
